# Experimental data: patent US20250049896A1 (Regeneron, published 2025)
# Changes are numbered by the printed parent chain.
# B1: 69329 scFv (VH-VK) (scFv)
# chain: EVQLVESGGGLVQPGGSLRLSCAASGFTFSNYWMTWVRQAPGKGLEWVANIKEDGSEKDYVDSVKGRFTISRDNAKNSLYLQMNSLRGEDTAVYYCARDGEQLVDYYYYYVMDVWGQGTTVTVSSDIQMTQSPSSVSASVGDRVTITCRASQGISSWLAWYQQKPGKAPKLLIYAASSLQSGVPSRFSGSGSGTDFTLTISSLQPEDFATYYCQKANSFPYTFGQGTKLEIK
# B2: 69263 scFv (VK-VH) (scFv)
# scFv: DIQMTQSPSSLSASVGDRVTITCRASQDISHYSAWYQQKPGKLPNLLIYAASTLQSGVPSRFSGSGSGTDFSLTTSSLQPEDVATYYCQKYNSVPLTFGGGTKVEIKGGGGSGGGGSGGGGSEVQLVESGGGLVQPGRSLRLSCAVSGFTFDDYAMHWVRQAPGKGLEWVSGISWNSGTRGYADSVKGRFTISRDNAKNSLYLQMNSLRGEDTALYYCVKDITISPNYYGMDVWGQGTTVTVSS
# notes: CHO supernatant; Vk-3xG4S-Vh
# B3: 69307 Fab (Fab, V domains shown)
# VH: EVQLVESGGGLVQPGGSLRLSCTASGFTFSNYWMTWVRQAPGKGLEWVANIKEDGSEKEYVDSVKGRFTISRDNAKNSLYLQMNSLRGEDTAVYYCARDGEQLVDYYYYYVMDVWGQGTTVTVSS
# VL: DIQMTQSPSSVSASVGDRVTITCRASQGISSWLAWYQQKPGKAPKLLIYAASSLQSGVPSRFSGSGSGTDFTLTISSLQPEDFATYYCQKADSLPYAFGQGTKLEIKR
# notes: CHO supernatant
# B4: 69329 Fab (Fab, V domains shown)
# VH: B3 VH with T23A, E59D
# VL: B3 VL with D92N, L94F, A97T
# notes: CHO supernatant
# B5: 69305 Fab (Fab, V domains shown)
# VH: QVQLVESGGGVVQPGRSLRLSCAASGFTFSSYGMHWVRQAPGKGLEWVAVIWYDGSNKYYADSVKGRFTISRDISKNTLYLQMNSLRAEDTAVYYCAGQLDLFFDYWGQGTLVTVSS
# VL: DIQMTQSPSSLSASVGDRVTITCRASQSIDRYLNWYRQKPGKAPKLLIYTTSSLQSGVPSRFSGSGSGTDFTLTLSSLQPEDFATYYCQQSYSPPLTFGGGTKVEIKR
# notes: CHO supernatant
# B6: 69331 Fab (Fab, V domains shown)
# VH: QVQLVESGGGVVQPGRSLRLSCIASGFTFSVYGIHWVRQAPGKGLEWMAVISHDGNIKHYADSVKGRFTISRDNSKNTLYLQINSLRTEDTAVYYCAKDTWNSLDTFDIWGQGTMVTVSS
# VL: DIQLTQSPSSLSASVGDRVTITCWASQGISSYLAWYQQKPGKAPKLLIYAASTLQSGVPSRFSGSGSGTEFTLTISSLQPEDFATYYCQQLNSYPLTFGGGTKVEIKR
# notes: CHO supernatant
# B7: 69263 Fab (Fab, V domains shown)
# VH: EVQLVESGGGLVQPGRSLRLSCAVSGFTFDDYAMHWVRQAPGKGLEWVSGISWNSGTRGYADSVKGRFTISRDNAKNSLYLQMNSLRGEDTALYYCVKDITISPNYYGMDVWGQGTTVTVSS
# VL: DIQMTQSPSSLSASVGDRVTITCRASQDISHYSAWYQQKPGKLPNLLIYAASTLQSGVPSRFSGSGSGTDFSLTTSSLQPEDVATYYCQKYNSVPLTFGGGTKVEIKR
# notes: CHO supernatant
# B8: 69323 Fab (Fab, V domains shown)
# VH: EVQLVESGGGLVQPGRSLRLSCAASGFTFDDYAMHWVRQAPGKGLEWVSGISWNSGYIGYADSVKGRFTISRDNAENSLHLQMNSLRAEDTALYYCARGGSTLVRGVKGGYYGMDVWGQGTTVTVSS
# VL: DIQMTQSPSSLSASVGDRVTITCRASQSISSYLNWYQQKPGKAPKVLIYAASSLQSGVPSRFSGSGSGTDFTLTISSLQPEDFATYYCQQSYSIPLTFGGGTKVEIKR
# notes: CHO supernatant
# B9: 69305 scFv (VH-VK) (scFv)
# chain: QVQLVESGGGVVQPGRSLRLSCAASGFTFSSYGMHWVRQAPGKGLEWVAVIWYDGSNKYYADSVKGRFTISRDISKNTLYLQMNSLRAEDTAVYYCAGQLDLFFDYWGQGTLVTVSSDIQMTQSPSSLSASVGDRVTITCRASQSIDRYLNWYRQKPGKAPKLLIYTTSSLQSGVPSRFSGSGSGTDFTLTLSSLQPEDFATYYCQQSYSPPLTFGGGTKVEIK
# B10: 69326 scFv (VH-VK) (scFv)
# chain: EVQLVESGGGLVQPGGSLRLSCAVSGFIFSSYEMNWVRQAPGKGLEWVSYISSSGSTIFYADSVKGRFTISRDNAKNSLYLQMNSLRAEDTAVYYCVSGVVLFDVWGQGTMVTVSSEIVMTQSPATLSVSPGERATLSCRASQSVSSNFAWYQQKPGQAPRLLIYSASSRATGIPVRFSGSGSGTEFTLTISSLQSEDFAVYYCQQYNIWPRTFGQGTKVEIK
# B11: 69305 scFv (VK-VH) (scFv)
# scFv: DIQMTQSPSSLSASVGDRVTITCRASQSIDRYLNWYRQKPGKAPKLLIYTTSSLQSGVPSRFSGSGSGTDFTLTLSSLQPEDFATYYCQQSYSPPLTFGGGTKVEIKGGGGSGGGGSGGGGSQVQLVESGGGVVQPGRSLRLSCAASGFTFSSYGMHWVRQAPGKGLEWVAVIWYDGSNKYYADSVKGRFTISRDISKNTLYLQMNSLRAEDTAVYYCAGQLDLFFDYWGQGTLVTVSS
# notes: CHO supernatant; Vk-3xG4S-Vh
# B12: 69261 Fab (Fab, V domains shown)
# VH: QVQLVESGGGLVKPGGSLRLSCAASGFTFSVYYMNWIRQAPGKGLEWVSYISSSGSTIYYADSVKGRFTISRDNAKNSLYLQMNSLRAEDTAVYYCGREGYSGTYSYYGMDVWGQGTTVTVSS
# VL: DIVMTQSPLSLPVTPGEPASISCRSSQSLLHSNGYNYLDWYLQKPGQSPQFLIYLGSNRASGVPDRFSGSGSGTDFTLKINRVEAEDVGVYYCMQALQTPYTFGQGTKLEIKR
# notes: CHO supernatant
# B13: 69326 scFv (VK-VH) (scFv)
# scFv: EIVMTQSPATLSVSPGERATLSCRASQSVSSNFAWYQQKPGQAPRLLIYSASSRATGIPVRFSGSGSGTEFTLTISSLQSEDFAVYYCQQYNIWPRTFGQGTKVEIKGGGGSGGGGSGGGGSEVQLVESGGGLVQPGGSLRLSCAVSGFIFSSYEMNWVRQAPGKGLEWVSYISSSGSTIFYADSVKGRFTISRDNAKNSLYLQMNSLRAEDTAVYYCVSGVVLFDVWGQGTMVTVSS
# notes: CHO supernatant; Vk-3xG4S-Vh
# B14: 69326 Fab (Fab, V domains shown)
# VH: EVQLVESGGGLVQPGGSLRLSCAVSGFIFSSYEMNWVRQAPGKGLEWVSYISSSGSTIFYADSVKGRFTISRDNAKNSLYLQMNSLRAEDTAVYYCVSGVVLFDVWGQGTMVTVSS
# VL: EIVMTQSPATLSVSPGERATLSCRASQSVSSNFAWYQQKPGQAPRLLIYSASSRATGIPVRFSGSGSGTEFTLTISSLQSEDFAVYYCQQYNIWPRTFGQGTKVEIKR
# notes: CHO supernatant
# B15: 69263 scFv (VH-VK) (scFv)
# chain: EVQLVESGGGLVQPGRSLRLSCAVSGFTFDDYAMHWVRQAPGKGLEWVSGISWNSGTRGYADSVKGRFTISRDNAKNSLYLQMNSLRGEDTALYYCVKDITISPNYYGMDVWGQGTTVTVSSDIQMTQSPSSLSASVGDRVTITCRASQDISHYSAWYQQKPGKLPNLLIYAASTLQSGVPSRFSGSGSGTDFSLTTSSLQPEDVATYYCQKYNSVPLTFGGGTKVEIK
# B16: 69307 scFv (VK-VH) (scFv)
# scFv: DIQMTQSPSSVSASVGDRVTITCRASQGISSWLAWYQQKPGKAPKLLIYAASSLQSGVPSRFSGSGSGTDFTLTISSLQPEDFATYYCQKADSLPYAFGQGTKLEIKGGGGSGGGGSGGGGSEVQLVESGGGLVQPGGSLRLSCTASGFTFSNYWMTWVRQAPGKGLEWVANIKEDGSEKEYVDSVKGRFTISRDNAKNSLYLQMNSLRGEDTAVYYCARDGEQLVDYYYYYVMDVWGQGTTVTVSS
# notes: CHO supernatant; Vk-3xG4S-Vh
# B17: 69329 scFv (VK-VH) (scFv)
# scFv: B16 scFv with D92N, L94F, A97T, T145A, E181D
# notes: CHO supernatant; Vk-3xG4S-Vh
# Target: T1, Hmm-hTFRC (REGN2431), monomeric human transferrin receptor ectodomain with N-terminal hexahistidine-myc-myc … (human, UniProt P02786 89-760)
# T1 construct: also called hmm.hTfR(C89-F763); His-myc-myc-hTFRC ecto
# T1 sequence (P02786 other isoform, or with tags, fused parts or gaps): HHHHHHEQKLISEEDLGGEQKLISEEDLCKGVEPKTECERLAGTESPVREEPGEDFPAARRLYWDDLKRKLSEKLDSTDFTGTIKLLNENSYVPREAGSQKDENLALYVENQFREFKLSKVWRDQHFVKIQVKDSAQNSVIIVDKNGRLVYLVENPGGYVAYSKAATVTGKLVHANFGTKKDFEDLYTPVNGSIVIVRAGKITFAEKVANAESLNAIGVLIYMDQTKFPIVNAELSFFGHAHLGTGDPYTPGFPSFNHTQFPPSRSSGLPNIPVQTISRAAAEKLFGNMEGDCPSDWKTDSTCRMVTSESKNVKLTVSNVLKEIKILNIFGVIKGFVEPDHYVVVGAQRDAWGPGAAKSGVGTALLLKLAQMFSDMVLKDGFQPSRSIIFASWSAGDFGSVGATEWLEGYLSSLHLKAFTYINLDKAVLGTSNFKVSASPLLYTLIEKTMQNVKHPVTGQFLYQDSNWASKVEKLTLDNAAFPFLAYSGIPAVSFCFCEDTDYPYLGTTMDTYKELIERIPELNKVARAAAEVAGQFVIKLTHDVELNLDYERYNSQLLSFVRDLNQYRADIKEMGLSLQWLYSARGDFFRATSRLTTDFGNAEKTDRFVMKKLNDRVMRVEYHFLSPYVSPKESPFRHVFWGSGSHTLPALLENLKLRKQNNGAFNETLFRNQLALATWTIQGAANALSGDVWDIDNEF
# Test: blocking ELISA, supernatant; Hmm-hTFRC binding to immobilized human holo-Tf
# Protocol: In the blocking assay, the anti-human Transferrin goat IgG polyclonal antibody (anti-hTf pAb) was passively absorbed at a concentration of 2 micrograms/mL in PBS on a 96-well microtiter plate overnight at 4° C. […] To the same plate, human holo-Tf was then added at a concentration of 1 micrograms/mL in PBS+0.5% BSA for 2 hours at room temperature. […] After a 1-hour incubation, the mixtures were transferred to the human holo-Tf microtiter plates. […] The plates were developed using TMB substrate solution according to the manufacturer's recommended procedure and absorbance at 450 nm was measured on a Victor™ Multilabel Plate Reader.
# The ability of the anti-TfR antibody to block human TFRC binding to human holo-Tf was evaluated using an ELISA-based blocking assay.
row,% Blocking,Binder
1,25%,B1
2,4%,B2
3,12%,B3
4,8%,B4
5,3%,B5
6,9%,B6
7,14%,B7
8,12%,B8
9,3%,B9
10,18%,B10
11,5%,B11
12,11%,B12
13,12%,B13
14,-2%,B14
15,14%,B15
16,12%,B16
17,19%,B17
